We go through 30 sequences from the nanobody polyreactivity screen of Harvey et al. (2022).

This data set in a line: yeast display, Sf9 membrane polyspecificity reagent, FACS + sequencing; frameworks hold sequencing errors. The gist of the method: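 Galactose-induced (36–48 hours) yeast carrying a synthetic nanobody display library were exposed to 10% biotinylated, detergent-solubilized Sf9 membrane reagent at 4 °C for 1 hour. FACS followed streptavidin microbead enrichment, using low and high (top ~1%) gates for expression (anti-HA) and reagent binding (streptavidin). Colony PCR, MiSeq 2 × 250 sequencing and CDR-length filtering followed. Labels for polyreactivity reflect the gate of origin.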
As to “QVQLVESVGGLVQAGGSLRLSCAASGGIFNGYAMGWYRQAPGKERELVAAITASGARTYYADSVKGRFTISRDNAKNTVYLQMNSLKPEDTAVYYCAKGFSYPGGPYYYFLGYGYWGQGTQVTVSS”, the “polyreactivity (PSR sort gate)” value was “high polyreactivity”.
“QVQLVESVGGLVQAGGSLRLSCAASGIILLYYALGWYRQAPGKERELVAAITTSGGRTYYADSVKGRFTISRDNAKNTVYLQMNSLKPEDTAVYYCAASTQGTYYPYKRYDYWGQGTQVTVSS”: the “polyreactivity (PSR sort gate)” value is on record as “high polyreactivity”.
On to “QVQLVESVGGLVQAGGSLRLSCAASGITFSTNAMGWYRQAPGKERELVAAITSVTSTYYADSVKGRFTISRDNAKNTVYLQMNSLKPEDTAVYYCASRLSRWPYFYEYNYWGQGTQVTVSS”, for which the “polyreactivity (PSR sort gate)” value is recorded as “low polyreactivity”.
Next, “QVQLVESVGGLVQAGGSLRLSCAASGITFTVYAMGWYRQAPGKERELVAAISSSGSTTYADSVKGRFTISRDNAKNTVYLQMNSLKPEDTAVYYCAAYSDYYLDQWYGYWGQGTQVTVSS”: “low polyreactivity”; “QVQLVESVGGLVQAGGSLRLSCAASGITFYDNAMGWYRQAPGKERELVAGISYSGGRTYYADSVKGRFTISRDNAKNTVYLQMNSLKPEDTAVYYCNARFGKYRSRQGYYYWGQGTQVTVSS”: “high polyreactivity”.
Regarding “QVQLVESVGGLVQAGGSLRLSCAASGITSYRYTKGWYRQAPGKARELVAAITISGGRTYYGDSVKGRFTISRDNAKNTVYLQLNSLKPEDTAVYYCAAGWRSGFDYWGQGTQVTVSS”, the “polyreactivity (PSR sort gate)” value is listed as “high polyreactivity”.
For the sequence “QVQLVESVGGLVQAGGSLRLSCAASGLNFSYYAMGWYRQAPGKERELVAAIDWISGSTYYADSVKGRFTISRDNAKNTVYLQMNSLKPEDTAVYYCAAYGSFWYAGFGYWGQGTQVTVSS”, the “polyreactivity (PSR sort gate)” value was “low polyreactivity”.
With “QVQLVESVGGLVQAGGSLRLSCAASGLTFWYYAMGCYRQAPGKERELVARITRSGVGTYYADSVKGRFTISRDNAKNTVYLQMNSLKAEDTAVYYCNARYQYSWVRYGYDYWGQGTQVTVSS”, the “polyreactivity (PSR sort gate)” value is reported as “high polyreactivity”.
As to “QVQLVESVGGLVQAGGSLRLSCAASGNIFYSYDMGWYRQAPGKERELVATISYRGTSTNYADSVKGRFTISRDNAKNTVYLQMNSLKPEDTAVYYCASDRGSHFARGSAYDYWGQGTQVTVSS”, the “polyreactivity (PSR sort gate)” value is listed as “low polyreactivity”.
As for “QVQLVESVGGLVQAGGSLRLSCAASGNTFRYNTMGWYRQAPGKERELVAVITRRGSSTYYADSVKGRFTISRDNAKNTVYLQMNSLKPEDTAVYYCAAGYGRYGYVYSGYGKWEDYWGQGTQVTVSS”, the “polyreactivity (PSR sort gate)” value is recorded as “high polyreactivity”.
For “QVQLVESVGGLVQAGGSLRLSCAASGRIFFYYGRGWYRQAPGKERELVAAITKRSSSTYYADSVKGRFTISRDNAKNTVYLQMNSLKPEDTAVYYCNAYPYRYVRRMDYWGQGTQVTVSS”, the “polyreactivity (PSR sort gate)” value was “high polyreactivity”.
Regarding “QVQLVESVGGLVQAGGSLRLSCAASGRIFGWYAMGWYRQAPGKERELVAAITSGGTTYYADSVKGRFTISRDNAKNTVYLQMNSLKPEDTAVYYCAKYHWRLSFSRYPYDYWGQGTQVTVSS”, the “polyreactivity (PSR sort gate)” value was “high polyreactivity”.
As to “QVQLVESVGGLVQAGGSLRLSCAASGRIFNYNAMGWYRQAPGKERELVAAITSSGDSTNYADSVKGRFTISRDNAKNTVYLQMNSLKPEDTAVYYCNASSPYDYDWGQGTQVTVSS”, the “polyreactivity (PSR sort gate)” value is “low polyreactivity”.
The same measure for “QVQLVESVGGLVQAGGSLRLSCAASGRIFVYYAMGWYRQAPGKERELVAAINSSGGRTYYADSVKGRVTISRDNAKNTVSLQMNSLQPEDTAVYYCAAVYRSWTSSNGRNYWGQGTQVTVAS”: “high polyreactivity”; for “QVQLVESVGGLVQAGGSLRLSCAASGRIFYFYAMGWYRQAPGKERELVASISSGSSTNYADSVKGRFTISRDNAKNTVYLQMNSLKPEDTAVYYCAAQPWHGSRPRSYYWGQGTQVTVSS”: “high polyreactivity”.
On to “QVQLVESVGGLVQAGGSLRLSCAASGRILRTNALGWYRKAPGKERELVAAISSDGSTYYADSVKGRFTISRDNAKNTVYLQMNSLKPEDTAVYYCAARLFYRGPRFDYWGQGTQVTVSS”, for which the “polyreactivity (PSR sort gate)” value was “low polyreactivity”.
Take “QVQLVESVGGLVQAGGSLRLSCAASGRIYAMGLYRPAPGKERELVAAISRGGSTYYADSVKGRFTISRDNAKNTVYLQMNSLKPEDSAVYYCARRYASTGYDYWGQGTQVTESS”: the “polyreactivity (PSR sort gate)” value is recorded as “high polyreactivity”.
The same measure for “QVQLVESVGGLVQAGGSLRLSCAASGRTFKFYAMGWYRQAPGKERELVAAISSSGGRTYYADSVKGRFTISRDIAKNTVYLQMNSLKPVDTAVYYCARSSDYYFFGHYYWGQGTQVTVSS”: “high polyreactivity”; for “QVQLVESVGGLVQAGGSLRLSCAASGRTFWYYSMGWDREAPGKERELVAAITSGGSTNYADSVKGRFTISRDNAKNTVYLQIYSLKPEDTAVYYCDTDNPVFEYYYWGQGTQVTVSS”: “low polyreactivity”.
“QVQLVESVGGLVQAGGSLRLSCAASGRTFYGYAMGWYRKAPGKERELVAAISTGGGRTYYADSVKGRFTISRDNAKNTVYLQMNSLKPEDTAVYYCAARRAYPHYRVDYWGQGTQVTVSS”: the “polyreactivity (PSR sort gate)” value is on record as “high polyreactivity”.
As for “QVQLVESVGGLVQAGGSLRLSCAASGRTLGKYAMGWYIQAPGKERELVAAIRWTGTSTYYADSVKGRFTISRDNAKNTVYLQMNSLKPEDTAVYYCAKGTVHSRPDFGRGWYRWDDYWGQGTQVTVSS”, the “polyreactivity (PSR sort gate)” value is on record as “high polyreactivity”.
For the sequence “QVQLVESVGGLVQAGGSLRLSCAASGSIFDVNAMGWYRQAPGKERELVAAITSSGGSTYYADSVKGRFTISRDNAKNTVYLQMNSLKPEDTAVYYCAAYSLYTMYWGQGTQVTVSS”, the “polyreactivity (PSR sort gate)” value was “low polyreactivity”.
Take “QVQLVESVGGLVQAGGSLRLSCAASGSIFFNYTMGWYRQAPGKERELVAAINSSGGRTNYADSVKGRFTISRDNAKNTVYLQMNSLKPEDTAVYYCAAVYYDVWYVYWGQGTQVTVSS”: the “polyreactivity (PSR sort gate)” value is “low polyreactivity”.
“QVQLVESVGGLVQAGGSLRLSCAASGSIFNRYAMGRYRQAPGKERELVAAISTHTGTTYYADSVKGRFTISRDNAKNTVYLQMNSLKPEDTAVYYCAKRSRYGYGKSYDYWGQGTQVTVSS”: the “polyreactivity (PSR sort gate)” value is given as “high polyreactivity”.
Consider “QVQLVESVGGLVQAGGSLRLSCAASGSIFRSYAMGWYRQAPGKERELVAAISWSGASTYYADSVKGRFTISRDNAKNTVYLQMNSLKPEDTAVYYCAARPRYWRWYSGDYWGQGTQVTVSS”, for which the “polyreactivity (PSR sort gate)” value is on record as “high polyreactivity”.
Regarding “QVQLVESVGGLVQAGGSLRLSCAASGSIFYGYAMGWYRQAAGKEREFVAAITFSATSTYYADSVKGRFTISRDNAKNTVYLQMNSLKPEVTAVYYCNASHVSHYRARDYWGQGTQVTVSS”, the “polyreactivity (PSR sort gate)” value is on record as “low polyreactivity”.
On to “QVQLVESVGGLVQAGGSLRLSCAASGSIIYHYPMGWYRHAPGKEAELVAAIYTTAGDTYYADSVKGRFTISRDNAKNTVYLQMNCLKPEDTAVYYCNASSSYFYYVRYDHWGQGTQVTVSS”, for which the “polyreactivity (PSR sort gate)” value is “low polyreactivity”.
The same measure for “QVQLVESVGGLVQAGGSLRLSCAASGSILQHYAMGWYRQAPGKETELVASISWTGGSTYYADSVKGRFTISRDNAKNTVYLQMNCLKPEDTAVYYCAARRYRYYSRGSWGQGTQVTVSS”: “high polyreactivity”.
With “QVQLVESVGGLVQAGGSLRLSCAASGSISIRNAMGWYRQAPGKERELVAAITYSGGSTYYADSVKGRFTISRDNAKNTVYLQMNSLKPEDTAVYYCNKDTYLATYLYDYWGQGTQVTVSS”, the “polyreactivity (PSR sort gate)” value is given as “low polyreactivity”.
Consider “QVQLVESVGGLVQAGGSLRLSCAASGSNFKYYAMGWYRQAPGKERELVAAITIGGNTNYADSVKGRFTISRDNAKNTVYLQMNSLKPEDTAVYYCATGGYYSAIVYGGYDYWGQGTQVTVSS”, for which the “polyreactivity (PSR sort gate)” value is “low polyreactivity”.
